This is an account of results in PMC9638019, “The archetypal gene transfer agent RcGTA is regulated via direct interaction with the enigmatic RNA polymerase omega subunit”.

For data set [1], the target named is MBP-GafA-Cx^87–382 (R. capsulatus). The data set is described as follows: SEC; analytical gel filtration, Superdex 200 increase 10/200 GL, MBP binding buffer (200 mM NaCl, 20 mM Tris, 1 mM EDTA; pH 7.4); molecular weight estimated from a standard curve.
The target of data set [2] is MBP-GafA-C^221–382 (R. capsulatus). Described as above.
Data set [3] concerns the target Maltose Binding Protein-GafA fusion protein (R. capsulatus). The data set is described as above.
Another data set addresses T1, MBP-GafA-C221-382 (UniProt D5AUH1 221-382).
T1 sequence: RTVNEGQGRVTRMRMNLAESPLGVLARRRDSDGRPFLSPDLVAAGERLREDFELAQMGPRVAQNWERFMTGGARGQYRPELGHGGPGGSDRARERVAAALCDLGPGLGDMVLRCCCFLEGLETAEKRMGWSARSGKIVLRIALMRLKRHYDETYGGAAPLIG
The data set is described as follows: EMSA; poly dI:dC; 25 mM HEPES pH 8.0, 50 mM K-glutamate, 50 mM MgSO4, 1 mM DTT, 0.1 mM EDTA, 0.05% Triton X-100, 4% glycerol, 1 ug poly dI:dC per 10 ul, 80 nM Cy5-dsDNA, 30 min room temperature; 7% acrylamide, 1x TBE. To be noted: protein: recombinant; tags: N-terminal MBP; chain copies: 2; label: 5'-Cy5 on one strand; blunt. (Mobility shift assays separate free from complexed probe on a gel.)

Data set [4] concerns the target T2, GafA-Nc1-86 (UniProt D5AUH1 1-86).
T2 sequence: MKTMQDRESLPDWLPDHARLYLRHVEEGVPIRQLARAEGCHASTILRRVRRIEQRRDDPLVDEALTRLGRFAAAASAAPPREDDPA
Put plainly: EMSA; non-specific: shift lost with 500-fold non-specific competitor; 25 mM HEPES pH 8.0, 50 mM K-glutamate, 50 mM MgSO4, 1 mM DTT, 0.1 mM EDTA, 0.05% Triton X-100, 4% glycerol, 1 ug poly dI:dC per 10 ul, 80 nM Cy5-dsDNA, 30 min room temperature; 7% acrylamide, 1x TBE. The following applies: protein: recombinant; tags: none (MBP removed with 3C protease); label: 5'-Cy5 on one strand; blunt.

For data set [5], the target named is T2, GafA-Nc1-86. The data set is described as follows: EMSA; specific: shift remains with 500-fold non-specific competitor; 25 mM HEPES pH 8.0, 50 mM K-glutamate, 50 mM MgSO4, 1 mM DTT, 0.1 mM EDTA, 0.05% Triton X-100, 4% glycerol, 1 ug poly dI:dC per 10 ul, 80 nM Cy5-dsDNA, 30 min room temperature; 7% acrylamide, 1x TBE. To be noted: protein: recombinant; tags: none (MBP removed with 3C protease); label: 5'-Cy5 on one strand; blunt.

Data set [6] deals with T2, GafA-Nc1-86. The data set is described as follows: EMSA; non-specific; 25 mM HEPES pH 8.0, 50 mM K-glutamate, 50 mM MgSO4, 1 mM DTT, 0.1 mM EDTA, 0.05% Triton X-100, 4% glycerol, 1 ug poly dI:dC per 10 ul, 80 nM Cy5-dsDNA, 30 min room temperature; 7% acrylamide, 1x TBE. To be noted: protein: recombinant; tags: none (MBP removed with 3C protease); label: 5'-Cy5 on one strand; blunt.

Usually stoichiometry N stands for a count of units in the complex or per binding partner. For the molecule MBP-GafA-Cx^87–382 (domain or fragment), in data set [1], the stoichiometry N was 2.

In the case of MBP-GafA-C^221–382 (domain or fragment), the stoichiometry N in data set [2] is 2.

With “Maltose Binding Protein-GafA fusion protein (natural protein)”, in data set [3], the stoichiometry N is 2.

B1: pGTA2 (dsDNA)
DNA 1: TTTGCGAACGCTTCAAGGTAGAGATAAGGCATGCTAGGAGAGGTGGGCAA
DNA 2: TTGCCCACCTCTCCTAGCATGCCTTATCTCTACCTTGAAGCGTTCGCAAA
B1: the binding result in the data set with MBP-GafA-C221-382 and in the data set with GafA-Nc1-86 [4] was “binds” throughout.

B2: pGafA3 (dsDNA)
DNA 1: CGCTCAACCGAACGCTGCGTTTGGAAATCTTTAGAGTTTATAAAGAATTT
DNA 2: AAATTCTTTATAAACTCTAAAGATTTCCAAACGCAGCGTTCGGTTGAGCG
Take B2: the binding result with MBP-GafA-C221-382 is on record as “binds”.

B3: pGTA1 (dsDNA)
DNA 1: TCCGGGGTTTTTTCTTTTCAGCGGGTGCAACCCTGAATATAGCACTTGAC
DNA 2: GTCAAGTGCTATATTCAGGGTTGCACCCGCTGAAAAGAAAAAACCCCGGA
As for B3, the binding result with GafA-Nc1-86 [5] is reported as “binds”.

B4: pGTA3 (dsDNA)
DNA 1: GCGCCGCGGGTGACCGTGTGCGCTTTTTTCATTTCGCTCGTGCGGACAGG
DNA 2: CCTGTCCGCACGAGCGAAATGAAAAAAGCGCACACGGTCACCCGCGGCGC
On to B4, for which the binding result in the data set with GafA-Nc1-86 [5] was “binds”.

B5: pGafA1 (dsDNA)
DNA 1: TCGAGATCGCCCCATTTCTTAACCAAGGGGTAACCAAAGCAACCCACGGT
DNA 2: ACCGTGGGTTGCTTTGGTTACCCCTTGGTTAAGAAATGGGGCGATCTCGA
Consider B5, for which the binding result in the data set with GafA-Nc1-86 [6] is recorded as “binds”.

B6: pGafA2 (dsDNA)
DNA 1: TGCAGATGCCGTTTGCGCTATCTGACTGCCAGCCTGTCGATGGGAGACCGGAGATGAAGA
DNA 2: TCTTCATCTCCGGTCTCCCATCGACAGGCTGGCAGTCAGATAGCGCAAACGGCATCTGCA
For B6, the binding result with GafA-Nc1-86 [6] was “binds”.

B7: pGTA4 (dsDNA)
DNA 1: TTCATTTCGCTCGTGCGGACAGGCATGAGAGGCGGGTCACGCAAGACATG
DNA 2: CATGTCTTGCGTGACCCGCCTCTCATGCCTGTCCGCACGAGCGAAATGAA
For the molecule B7, the binding result in the data set with GafA-Nc1-86 [4] is given as “binds”.
